Test system: IL-18
Assay: IL-18 levels in small intestine and serum after oral rhLF or bLF (ELISA)
Format: in vivo, mice
Experimental: Recombinant human lactoferrin and bovine lactoferrin were orally administered to mice, and the production of IL-18 in the small intestine was measured.
Mice were treated for three days daily with 65 mg/kg/day of rhLF, 300 mg/kg/day of rhLF or 300 mg/kg/day of bLF. For a control, mice were only administered the pharmaceutical carrier. Twenty-four hours following administration of the LF or control for 3 days, animals were weighed and blood and serum were collected. Serum was used for cytokine ELISA assays.
Also, at these time points, animals were sacrificed and the small intestinal tissue was removed for further analysis. Small intestinal epithelium was homogenized using a lysis buffer consisting of PBS, 1% Nonidet P-40, 0.5% sodium deoxycholate, and 0.1% sodium dodecyl sulphate containing 10 μg/ml PhenylMetheylsulfonyl fluoride. Homogenate was centrifuged at 15,000 rpm for 10 minutes and the supernatant stored at −80 C till it was tested for IL-18 levels.

[1] = oral 300 mg/kg/day for three days
[2] = oral 300 mg/kg/day for three days, 24 h after last dose

B1: bLF: bovine lactoferrin, orally administered comparator (protein, UniProt P24627 20-708, looked up)
Lactotransferrin: APRKNVRWCTISQPEWFKCRRWQWRMKKLGAPSITCVRRAFALECIRAIAEKKADAVTLDGGMVFEAGRDPYKLRPVAAEIYGTKESPQTHYYAVAVVKKGSNFQLDQLQGRKSCHTGLGRSAGWIIPMGILRPYLSWTESLEPLQGAVAKFFSASCVPCIDRQAYPNLCQLCKGEGENQCACSSREPYFGYSGAFKCLQDGAGDVAFVKETTVFENLPEKADRDQYELLCLNNSRAPVDAFKECHLAQVPSHAVVARSVDGKEDLIWKLLSKAQEKFGKNKSRSFQLFGSPPGQRDLLFKDSALGFLRIPSKVDSALYLGSRYLTTLKNLRETAEEVKARYTRVVWCAVGPEEQKKCQQWSQQSGQNVTCATASTTDDCIVLVLKGEADALNLDGGYIYTAGKCGLVPVLAENRKSSKHSSLDCVLRPTEGYLAVAVVKKANEGLTWNSLKDKKSCHTAVDRTAGWNIPMGLIVNQTGSCAFDEFFSQSCAPGADPKSRLCALCAGDDQGLDKCVPNSKEKYYGYTGAFRCLAEDVGDVAFVKNDTVWENTNGESTADWAKNLNREDFRLLCLDGTRKPVTEAQSCHLAVAPNHAVVSRSDRAAHVKQVLLHQQALFGKNGKNCPDKFCLFKSETKNLLFNDNTECLAKLGGRPTYEEYLGTEYVTAIANLKKCSTSPLLEACAFLTR
- serum levels of IL-18 (in words) (oral 300 mg/kg/day): did not increase
- IL-18 Intestinal Extract % Increase Over Control [1]: 373%
- IL-18 Serum % Increase Over Control [1]: −5%
- IL-18 level, Intestinal Extract [2]: 4,515 pg
- IL-18 level, Serum [2]: 134 pg
- intestinal IL-18 levels (in words) (oral 300 mg/kg/day, compared with rhLF): lesser increase

— patent US20100137208A1, “INTRATUMORALLY ADMINISTERED LACTOFERRIN IN THE TREATMENT OF MALIGNANTNEOPLASMS AND OTHER HYPERPROLIFERATIVE DISEASES” (priority 2002, published 2010)
